Assay results published in patent publication US20080031815A1 (published 2008).

T1: human VEGFR-1 (FLT-1) expressed on porcine aortic endothelial cells (PAE/FLT-1) (human), P17948
T1 chain: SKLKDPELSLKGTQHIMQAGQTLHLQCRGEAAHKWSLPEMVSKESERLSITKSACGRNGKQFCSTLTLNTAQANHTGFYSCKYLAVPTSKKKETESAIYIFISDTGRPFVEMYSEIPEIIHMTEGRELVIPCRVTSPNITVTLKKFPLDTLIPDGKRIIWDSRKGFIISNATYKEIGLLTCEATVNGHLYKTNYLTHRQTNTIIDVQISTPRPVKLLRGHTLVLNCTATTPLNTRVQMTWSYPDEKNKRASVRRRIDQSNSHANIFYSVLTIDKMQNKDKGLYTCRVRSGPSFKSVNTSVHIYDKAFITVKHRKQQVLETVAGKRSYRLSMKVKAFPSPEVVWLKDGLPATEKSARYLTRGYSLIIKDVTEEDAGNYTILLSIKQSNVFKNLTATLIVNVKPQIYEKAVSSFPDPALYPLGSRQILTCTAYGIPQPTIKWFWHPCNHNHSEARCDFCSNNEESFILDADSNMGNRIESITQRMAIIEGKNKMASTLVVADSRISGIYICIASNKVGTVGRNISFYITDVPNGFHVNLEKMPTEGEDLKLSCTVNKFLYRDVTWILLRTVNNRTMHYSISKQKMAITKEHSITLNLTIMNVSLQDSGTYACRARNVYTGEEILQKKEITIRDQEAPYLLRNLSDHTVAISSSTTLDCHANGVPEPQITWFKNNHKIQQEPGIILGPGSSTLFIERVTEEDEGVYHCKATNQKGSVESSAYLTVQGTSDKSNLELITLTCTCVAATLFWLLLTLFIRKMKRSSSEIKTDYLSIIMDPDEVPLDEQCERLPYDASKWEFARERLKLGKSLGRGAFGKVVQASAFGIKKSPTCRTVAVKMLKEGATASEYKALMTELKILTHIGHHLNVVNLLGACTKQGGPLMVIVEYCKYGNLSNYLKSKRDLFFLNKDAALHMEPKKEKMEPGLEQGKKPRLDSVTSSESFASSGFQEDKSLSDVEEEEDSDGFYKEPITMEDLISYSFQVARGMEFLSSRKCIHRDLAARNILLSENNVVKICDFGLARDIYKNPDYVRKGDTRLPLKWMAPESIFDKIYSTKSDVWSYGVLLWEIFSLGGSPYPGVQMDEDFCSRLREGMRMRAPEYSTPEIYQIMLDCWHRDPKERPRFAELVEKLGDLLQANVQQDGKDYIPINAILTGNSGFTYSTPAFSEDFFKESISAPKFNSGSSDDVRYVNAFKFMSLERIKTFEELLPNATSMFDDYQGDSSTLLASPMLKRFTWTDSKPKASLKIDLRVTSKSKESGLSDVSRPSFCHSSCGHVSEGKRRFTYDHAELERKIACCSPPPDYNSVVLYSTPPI


Key:
[1] = target: T2, human VEGFR-2 (KDR) expressed on porcine aortic endothelial cells (PAE/KDR) (human, UniProt P35968 20-1356); assay: cell-based or functional assay
[2] = target: T3, human VEGFR-1 (FLT-1) expressed on porcine aortic endothelial cells (PAE/FLT-1) (human, UniProt P17948 27-1338); assay: competitive cell binding on PAE/FLT-1 cells, 125I-VEGF165 as radioligand
T3 construct: whole, on cells; also called PAE/VEGFR-1 cells; PAE/FLT-1 cells
Experimental: (§1) The detailed procedure of competitive cell binding assay has been described herein. VEGFR-1 and VEGFR-2 binding affinity of VEGF₁₂₁, VEGFDEE, and the DOTA conjugates was evaluated by PAE/FLT-1 and PAE/KDR cell binding assays using ¹²⁵I-VEGF₁₆₅ (VEGF₁₆₅ protein (SEQ ID No: 4)) as the radioligand. The best-fit IC₅₀ values were calculated by fitting the data by nonlinear regression using GraphPad Prism (GraphPad Software, Inc.). Experiments were carried out with triplicate samples.
(§2) Two proteins were prepared for this study: VEGF₁₂₁ and the triple mutant at the 63, 64, and 67 positions (VEGFDEE) (FIG. 17). The His-tag containing proteins were purified to homogeneity. Cell binding assay was then carried out to determine the VEGFR-1 and VEGFR-2 binding affinity (FIGS. 18a and 18b).

[3] = target: T3, human VEGFR-1 (FLT-1) expressed on …; assay: competitive cell binding on PAE/FLT-1 cells
Experimental: as §1, §2

[4] = target: T2, human VEGFR-2 (KDR) expressed on …; assay: competitive cell binding on PAE/KDR against PAE/FLT-1 cells
Experimental: as §1, §2

[5] = target: T2, human VEGFR-2 (KDR) expressed on …; assay: competitive cell binding on PAE/KDR cells
Experimental: as §1, §2

[6] = target: T2, human VEGFR-2 (KDR) expressed on …; assay: competitive cell binding on PAE/KDR cells, 125I-VEGF165 as radioligand
Experimental: as §1

[7] = target: T1, human VEGFR-1 (FLT-1) expressed on …; assay: competitive cell binding on PAE/FLT-1 cells, 125I-VEGF165 as radioligand; conditions: remark: other sources report otherwise
[8] = target: T2, human VEGFR-2 (KDR) expressed on …; assay: competitive cell binding on PAE/KDR cells, 125I-VEGF165 as radioligand (Example 2)
[9] = target: T4, soluble VEGFR1D1-D6 (sVEGFR1) (Homo sapiens (Human), UniProt P17948 27-687); assay: plate-coated sVEGFR1, competition with 125I-VEGF165
T4 construct: Coated on 96-well plates
Experimental: (§3) Porcine aortic endothelial cells (PAE-KDR cells) stably transfected to express human VEGFR2 (KDR) and porcine aortic endothelial cells (PAE cells) not expressing VEGFR1 and VEGFR2 were cultured in Ham's F-12 medium containing 10% fetal bovine serum (Sigma-Aldrich, Saint Louis, Mo.). Using ¹²⁵I-VEGF₁₆₅ as the radioligand, receptor-binding affinity of VEGF₁₂₁ and VEGFNLS for VEGFR2 was performed as described elsewhere for both PAE-KDR and PAE cells (J Med. Chem. 2005; 48:1098-1106, which is include herein by reference). […] Serially diluted VEGF₁₂₁ or VEGFNLS were then added to compete with the radioligand ¹²⁵I-VEGF₁₆₅. After 2 h incubation at room temperature, the plates were washed and bound ¹²⁵I-VEGF₁₆₅/sVEGFR1 complex was dissociated by acidified 0.1% SDS solution, the eluent was collected and the radioactivity was measured by a gamma counter (Cobra II Auto-Gamma; Perkin-Elmer, Wellesley, Mass.). The best-fit 50% inhibitory concentration (IC₅₀) values were calculated by fitting the data by nonlinear regression using GraphPad Prism 4.0 (GraphPad Software, Inc., San Diego, Calif.). Experiments were performed twice with triplicate samples.

[10] = target: T2, human VEGFR-2 (KDR) expressed on …; assay: competitive cell binding on PAE-KDR cells, 125I-VEGF165 as radioligand
Experimental: as §3

T2 sequence (P35968 20-1356): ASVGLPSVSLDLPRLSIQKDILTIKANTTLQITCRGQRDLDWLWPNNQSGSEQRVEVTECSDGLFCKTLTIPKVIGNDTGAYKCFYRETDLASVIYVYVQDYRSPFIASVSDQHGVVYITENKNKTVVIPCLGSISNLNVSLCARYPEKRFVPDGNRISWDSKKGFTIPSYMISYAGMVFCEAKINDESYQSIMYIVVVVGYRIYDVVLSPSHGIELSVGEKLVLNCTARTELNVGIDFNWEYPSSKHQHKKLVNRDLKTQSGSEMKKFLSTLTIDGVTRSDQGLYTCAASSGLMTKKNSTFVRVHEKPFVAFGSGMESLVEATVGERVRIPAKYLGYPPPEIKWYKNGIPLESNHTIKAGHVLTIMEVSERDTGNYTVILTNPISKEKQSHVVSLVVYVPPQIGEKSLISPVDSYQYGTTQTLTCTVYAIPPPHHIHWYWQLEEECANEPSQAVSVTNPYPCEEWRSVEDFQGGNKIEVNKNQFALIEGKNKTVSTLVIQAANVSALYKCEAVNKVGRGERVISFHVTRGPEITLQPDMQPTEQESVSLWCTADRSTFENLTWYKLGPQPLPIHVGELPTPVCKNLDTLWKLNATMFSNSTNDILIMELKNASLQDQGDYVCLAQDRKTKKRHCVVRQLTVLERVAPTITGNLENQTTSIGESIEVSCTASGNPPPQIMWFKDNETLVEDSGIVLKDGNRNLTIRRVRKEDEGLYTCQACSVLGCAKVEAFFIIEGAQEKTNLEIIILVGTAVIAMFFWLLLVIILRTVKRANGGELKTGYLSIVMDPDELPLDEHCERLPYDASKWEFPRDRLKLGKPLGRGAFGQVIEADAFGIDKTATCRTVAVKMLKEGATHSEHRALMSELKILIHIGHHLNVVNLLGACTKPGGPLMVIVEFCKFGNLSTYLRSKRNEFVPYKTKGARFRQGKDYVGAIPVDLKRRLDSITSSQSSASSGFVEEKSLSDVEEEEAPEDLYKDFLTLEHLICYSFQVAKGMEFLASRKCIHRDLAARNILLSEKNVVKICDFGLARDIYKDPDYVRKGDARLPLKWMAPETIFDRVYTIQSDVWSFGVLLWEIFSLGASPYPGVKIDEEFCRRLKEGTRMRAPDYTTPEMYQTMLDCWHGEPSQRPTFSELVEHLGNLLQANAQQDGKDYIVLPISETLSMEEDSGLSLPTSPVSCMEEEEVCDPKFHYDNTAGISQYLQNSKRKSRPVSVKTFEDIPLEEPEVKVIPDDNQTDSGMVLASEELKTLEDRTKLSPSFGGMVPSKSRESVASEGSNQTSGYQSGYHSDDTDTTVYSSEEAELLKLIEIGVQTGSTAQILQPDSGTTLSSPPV

Binder	functional assay using PAE/KDR cells (FIG. 18e) [1] [nM]	phosphorylated VEGFR-2 (Western blot, PAE/KDR cells) [1] [nM]	IC50 [6] [nM]	further results
VEGFR-2 specific mutant VEGFDEE (D63AE64AE67A mutant of VEGF121) (ligand, also called VEGF121-DEE Mutant; not shown: His-tag) MAPMAEGGGQNHHEVVKFMDVYQRSYCHPIETLVDIFQEYPDEIEYIFKPSCVPLMRCGGCCNAAGLACVPTEESNITMQIMRIKPHQGQHIGEMSFLQHNKCECRPKKDRARQEKCDKPRRGS	> 5	> 10	11.7	IC50 [2]: 78.1 nM; fold lower binding against VEGF121 [3]: ~20 fold; fold higher binding affinity against VEGFR-1 [4]: ~7 fold; fold lower binding affinity against VEGF121 [5]: 4 fold
VEGF121 protein (Examples 3 and 5: His-tag containing, expressed from pRSF-Duet1), P15692 207-395 (ligand, not shown: small tags and cut ends) APMAEGGGQNHHEVVKFMDVYQRSYCHPIETLVDIFQEYPDEIEYIFKPSCVPLMRCGGCCNDEGLECVPTEESNITMQIMRIKPHQGQHIGEMSFLQHNKCECRPKKDRARQEKCDKPRR	–	–	–	IC50 [7]: 4.2 nM
VEGF121 protein (Examples 3 and 5: His-tag containing, expressed from pRSF-Duet1) (ligand, No tag removal is described; also called wild type VEGF121; wild-type VEGF121; not shown: His-tag) APMAEGGGQNHHEVVKFMDVYQRSYCHPIETLVDIFQEYPDEIEYIFKPSCVPLMRCGGCCNDEGLECVPTEESNITMQIMRIKPHQGQHIGEMSFLQHNKCECRPKKDRARQEKCDKPRR	> 5	> 10	–	IC50 [9]: 4 nM; IC50 [10]: 2.9 nM

Further lines, with some results ahead:

functional assay using PAE/KDR cells (FIG. 18e) [1] [nM]	phosphorylated VEGFR-2 (Western blot, PAE/KDR cells) [1] [nM]	IC50 [6] [nM]	Binder	further results
> 5	> 10	10.3	DOTA-VEGFDEE (ligand, DOTA conjugated; 2.2±0.1 DOTA molecules per monomeric VEGFDEE; sites not stated, DOTA conjugate of m4; not shown: His-tag) MAPMAEGGGQNHHEVVKFMDVYQRSYCHPIETLVDIFQEYPDEIEYIFKPSCVPLMRCGGCCNAAGLACVPTEESNITMQIMRIKPHQGQHIGEMSFLQHNKCECRPKKDRARQEKCDKPRRGS	–
–	–	1.02	VEGF121 protein (Examples 1 and 2: expressed from pET-32, tag removed with enterokinase) (ligand, also called unlabeled VEGF121; naive VEGF121) APMAEGGGQNHHEVVKFMDVYQRSYCHPIETLVDIFQEYPDEIEYIFKPSCVPLMRCGGCCNDEGLECVPTEESNITMQIMRIKPHQGQHIGEMSFLQHNKCECRPKKDRARQEKCDKPRR	IC50 [8]: 1.11 nM
–	–	1.66	DOTA-VEGF121 (Examples 1 and 2) (ligand, DOTA conjugated to lysine residues and/or N-terminal amine groups; 4.33±0.24 DOTA per VEGF121, The conjugation sites are not mapped) APMAEGGGQNHHEVVKFMDVYQRSYCHPIETLVDIFQEYPDEIEYIFKPSCVPLMRCGGCCNDEGLECVPTEESNITMQIMRIKPHQGQHIGEMSFLQHNKCECRPKKDRARQEKCDKPRR	IC50 [8]: 1.59 nM
> 5	> 10	5	DOTA-VEGF121 (Example 5) (ligand, DOTA conjugated; 2.1±0.1 DOTA molecules per monomeric VEGF121; sites not stated, DOTA conjugate of m3; not shown: His-tag) APMAEGGGQNHHEVVKFMDVYQRSYCHPIETLVDIFQEYPDEIEYIFKPSCVPLMRCGGCCNDEGLECVPTEESNITMQIMRIKPHQGQHIGEMSFLQHNKCECRPKKDRARQEKCDKPRR	–
